In article PMC3776929 (Cell, 2013):

B1: Swc5 (natural protein, S. cerevisiae, UniProt P38326 1-303, looked up)
chain: MPEVETKIIPNEKEDEDEDGYIEEEDEDFQPEKDKLGGGSDDSDASDGGDDYDDGVNRDKGRNKVDYSRIESESGGLIKTRRARQAEEEYAKTHKYESLTVESIPAKVNSIWEELQEASKNRLLSSSGKVGSVLDGSKEARSTTAAQQEDKILIERNYKFAGETVHEKKWVSRSSAEGQEYLNSLKFKQQAPAAPVQLEKAVRTKSNESRQHLRRPLKRPPLLEQIISGGLRPKLTTLEKSQLDWASYVDRAGLNDELVLHNKDGFLARQEFLQRVGSAEDERYKELRRQQLAQQLQQDSEAS
notes: Swc5, subunit of SWR1, S. cerevisiae; also called small subunit Swc5; source: endogenous, S. cerevisiae; co-purified in the SWR1 complex
B2: Yaf9 (natural protein, S. cerevisiae, UniProt P53930 1-226, looked up)
chain: MAPTISKRIKTLSVSRPIIYGNTAKKMGSVKPPNAPAEHTHLWTIFVRGPQNEDISYFIKKVVFKLHDTYPNPVRSIEAPPFELTETGWGEFDINIKVYFVEEANEKVLNFYHRLRLHPYANPVPNSDNGNEQNTTDHNSKDAEVSSVYFDEIVFNEPNEEFFKILMSRPGNLLPSNKTDDCVYSKQLEQEEIDRIEIGIEKVDKEIDELKQKLENLVKQEAINGS
notes: Yaf9, N-Module subunit of SWR1, S. cerevisiae; source: endogenous, S. cerevisiae; co-purified in the SWR1 complex

What was measured:
[1] = molecular target: T1, Act1 (S. cerevisiae, UniProt P60010 1-375); assay: cross-linking; ∼45 μg affinity-purified SWR1 cross-linked with 1 mM DSS d0/d12 in SWR1 buffer, 37°C, 30 min; trypsin, SEC enrichment, LC-MS/MS, xQuest (CX-MS); conditions: both partners purified
T1 construct: Act1 (actin), N-Module subunit of SWR1, S. cerevisiae; source: endogenous, S. cerevisiae; co-purified in the SWR1 complex

[2] = molecular target: T2, Swr1, FLAG-tagged catalytic subunit of the SWR1 complex (S. cerevisiae, UniProt Q05471 1-1514); assay: co-IP; FLAG affinity purification of SWR1 (or a subcomplex) from S. cerevisiae, eluted with 3× FLAG peptide; SDS-PAGE (4%-12% Bis-Tris), Coomassie or SYPRO Orange stain; band intensities normalised for protein size for the stoichiometry; conditions: partners not purified
T2 construct: Swr1, catalytic ATPase subunit of the SWR1 complex, S. cerevisiae; HSA domain in the N-terminal half, split ATPase domain with long insert in the C-terminal half; also called Swr1-3xFLAG; Swr1 ATPase
T2 sequence (Q05471 whole entry, the tested form may be a part, one chain of several): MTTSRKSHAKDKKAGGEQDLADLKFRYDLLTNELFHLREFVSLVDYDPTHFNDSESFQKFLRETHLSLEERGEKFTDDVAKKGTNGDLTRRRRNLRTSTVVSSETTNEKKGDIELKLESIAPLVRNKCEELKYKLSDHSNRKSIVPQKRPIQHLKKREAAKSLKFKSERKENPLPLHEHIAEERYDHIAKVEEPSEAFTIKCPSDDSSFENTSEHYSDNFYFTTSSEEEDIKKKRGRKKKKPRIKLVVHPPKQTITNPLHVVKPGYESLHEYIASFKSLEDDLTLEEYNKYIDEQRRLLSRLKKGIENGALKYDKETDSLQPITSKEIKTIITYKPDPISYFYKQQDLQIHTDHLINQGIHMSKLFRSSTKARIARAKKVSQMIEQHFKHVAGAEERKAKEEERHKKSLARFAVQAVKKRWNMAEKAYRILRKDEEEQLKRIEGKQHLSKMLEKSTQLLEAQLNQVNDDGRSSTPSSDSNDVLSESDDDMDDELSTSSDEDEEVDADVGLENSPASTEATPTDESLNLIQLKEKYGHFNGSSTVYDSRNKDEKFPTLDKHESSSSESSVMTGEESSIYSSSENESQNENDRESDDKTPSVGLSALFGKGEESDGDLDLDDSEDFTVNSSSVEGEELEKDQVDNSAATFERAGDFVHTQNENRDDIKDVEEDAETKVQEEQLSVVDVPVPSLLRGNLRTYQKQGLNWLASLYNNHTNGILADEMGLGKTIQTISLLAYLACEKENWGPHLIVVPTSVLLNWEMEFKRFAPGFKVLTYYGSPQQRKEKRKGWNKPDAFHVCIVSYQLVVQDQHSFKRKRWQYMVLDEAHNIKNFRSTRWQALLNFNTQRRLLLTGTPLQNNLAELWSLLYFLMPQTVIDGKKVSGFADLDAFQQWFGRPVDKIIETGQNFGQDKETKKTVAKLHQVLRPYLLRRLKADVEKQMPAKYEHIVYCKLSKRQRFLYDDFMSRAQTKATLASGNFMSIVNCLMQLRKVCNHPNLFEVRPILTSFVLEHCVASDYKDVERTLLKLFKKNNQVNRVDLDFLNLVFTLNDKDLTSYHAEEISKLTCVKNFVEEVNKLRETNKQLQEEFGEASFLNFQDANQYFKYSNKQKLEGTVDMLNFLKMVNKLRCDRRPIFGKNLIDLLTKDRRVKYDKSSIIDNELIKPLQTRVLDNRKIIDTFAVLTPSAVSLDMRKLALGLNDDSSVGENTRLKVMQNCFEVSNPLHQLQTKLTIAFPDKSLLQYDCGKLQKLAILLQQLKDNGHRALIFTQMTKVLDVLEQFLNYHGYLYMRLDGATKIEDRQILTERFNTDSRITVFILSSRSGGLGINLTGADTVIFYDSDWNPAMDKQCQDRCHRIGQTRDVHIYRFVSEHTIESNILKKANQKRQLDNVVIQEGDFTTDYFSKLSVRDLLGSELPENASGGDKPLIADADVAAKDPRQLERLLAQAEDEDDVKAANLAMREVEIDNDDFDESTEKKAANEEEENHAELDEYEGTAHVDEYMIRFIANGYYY

[3] = molecular target: B1; assay: cross-linking; ∼45 μg affinity-purified SWR1 cross-linked with 1 mM DSS d0/d12 in SWR1 buffer, 37°C, 30 min; trypsin, SEC enrichment, LC-MS/MS, xQuest (CX-MS); conditions: both partners purified

Binder | binding result [1] | binding result [2] | binding result [3]
B1 | binds | binds | –
B2 | – | – | binds
